Consider 1 protein from article PMC2930322 (PLoS ONE, 2010).

The data set concerns the molecule itself. In words: atomic force microscopy; assembled 1 h at 37°C in 25 mM Tris-HCl (pH 7.5) with NaCl (vimentin 0.1 mg/ml, 125 mM NaCl; K5/K14 0.1 mg/ml, 50-100 mM NaCl), adsorbed to mica, flushed with water, dried, imaged in air in acoustic mode.

B1: Human K5/K14 heterodimers (complex)
chain 1: MSRQSSVSFRSGGSRSFSTASAITPSVSRTSFTSVSRSGGGGGGGFGRVSLAGACGVGGYGSRSLYNLGGSKRISISTSGGSFRNRFGAGAGGGYGFGGGAGSGFGFGGGAGGGFGLGGGAGFGGGFGGPGFPVCPPGGIQEVTVNQSLLTPLNLQIDPSIQRVRTEEREQIKTLNNKFASFIDKVRFLEQQNKVLDTKWTLLQEQGTKTVRQNLEPLFEQYINNLRRQLDSIVGERGRLDSELRNMQDLVEDFKNKYEDEINKRTTAENEFVMLKKDVDAAYMNKVELEAKVDALMDEINFMKMFFDAELSQMQTHVSDTSVVLSMDNNRNLDLDSIIAEVKAQYEEIANRSRTEAESWYQTKYEELQQTAGRHGDDLRNTKHEISEMNRMIQRLRAEIDNVKKQCANLQNAIADAEQRGELALKDARNKLAELEEALQKAKQDMARLLREYQELMNTKLALDVEIATYRKLLEGEECRLSGEGVGPVNISVVTSSVSSGYGSGSGYGGGLGGGLGGGLGGGLAGGSSGSYYSSSSGGVGLGGGLSVGGSGFSASSGRGLGVGFGSGGGSSSSVKFVSTTSSSRKSFKS
chain 2: MTTCSRQFTSSSSMKGSCGIGGGIGGGSSRISSVLAGGSCRAPSTYGGGLSVSSSRFSSGGACGLGGGYGGGFSSSSSSFGSGFGGGYGGGLGAGLGGGFGGGFAGGDGLLVGSEKVTMQNLNDRLASYLDKVRALEEANADLEVKIRDWYQRQRPAEIKDYSPYFKTIEDLRNKILTATVDNANVLLQIDNARLAADDFRTKYETELNLRMSVEADINGLRRVLDELTLARADLEMQIESLKEELAYLKKNHEEEMNALRGQVGGDVNVEMDAAPGVDLSRILNEMRDQYEKMAEKNRKDAEEWFFTKTEELNREVATNSELVQSGKSEISELRRTMQNLEIELQSQLSMKASLENSLEETKGRYCMQLAQIQEMIGSVEEQLAQLRCEMEQQNQEYKILLDVKTRLEQEIATYRRLLEGEDAHLSSSQFSSGSQSSRDVTSSSRQIRTKVMDVHDGKVVSTHEQVLRTKN
notes: keratin K5 (keratin, type II cytoskeletal 5), human; keratin K14 (keratin, type I cytoskeletal 14), human; Named only as a heterodimer; the two chains are never tested against each other or one by one; also called keratin K5/K14; K5/K14 subunits; source: expressed and purified as described [17]; stored in 6 M urea, dialysed into 2 mM Tris-HCl (pH 9), 1 mM DTT
With B1, the binding result is “binds”.
